Laboratory results taken from patent publication US20190134223A1 (TEMPLE UNIVERSITY OF THE COMMONWEALTH SYSTEM OF HIGHER …, published 2019).

Legend:
[1] = molecular target: T1, endogenous Gαq in the mouse heart (mouse (endogenous, in the hearts of the …, UniProt P21279 1-359)); assay: anti-FLAG immunoprecipitation from cardiac lysates of TgβARKnt mice 4 weeks after Sham or TAC, western blot with anti-Gαq antibody
T1 construct: Endogenous protein in cardiac lysates, detected by western blot with anti-Gαq antibody; also called Gq; Gaq
T1 sequence (looked up): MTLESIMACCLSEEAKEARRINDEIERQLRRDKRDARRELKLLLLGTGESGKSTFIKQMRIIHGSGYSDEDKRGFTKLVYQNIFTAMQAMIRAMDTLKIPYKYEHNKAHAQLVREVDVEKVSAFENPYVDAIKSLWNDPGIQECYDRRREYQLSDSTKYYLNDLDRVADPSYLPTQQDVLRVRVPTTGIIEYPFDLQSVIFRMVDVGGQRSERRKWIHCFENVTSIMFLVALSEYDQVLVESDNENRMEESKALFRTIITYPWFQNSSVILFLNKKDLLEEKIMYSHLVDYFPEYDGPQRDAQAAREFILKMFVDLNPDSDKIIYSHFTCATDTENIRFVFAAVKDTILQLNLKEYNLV

[2] = molecular target: T2, full-length GRK2 (endogenous, mouse heart) (mouse (endogenous, in the hearts of the …, UniProt Q99MK8 1-689)); assay: anti-FLAG immunoprecipitation from cardiac lysates of TgβARKnt mice 4 weeks after Sham or TAC, western blot
T2 construct: GRK2 in the heart'; also called βARK1
T2 sequence (looked up): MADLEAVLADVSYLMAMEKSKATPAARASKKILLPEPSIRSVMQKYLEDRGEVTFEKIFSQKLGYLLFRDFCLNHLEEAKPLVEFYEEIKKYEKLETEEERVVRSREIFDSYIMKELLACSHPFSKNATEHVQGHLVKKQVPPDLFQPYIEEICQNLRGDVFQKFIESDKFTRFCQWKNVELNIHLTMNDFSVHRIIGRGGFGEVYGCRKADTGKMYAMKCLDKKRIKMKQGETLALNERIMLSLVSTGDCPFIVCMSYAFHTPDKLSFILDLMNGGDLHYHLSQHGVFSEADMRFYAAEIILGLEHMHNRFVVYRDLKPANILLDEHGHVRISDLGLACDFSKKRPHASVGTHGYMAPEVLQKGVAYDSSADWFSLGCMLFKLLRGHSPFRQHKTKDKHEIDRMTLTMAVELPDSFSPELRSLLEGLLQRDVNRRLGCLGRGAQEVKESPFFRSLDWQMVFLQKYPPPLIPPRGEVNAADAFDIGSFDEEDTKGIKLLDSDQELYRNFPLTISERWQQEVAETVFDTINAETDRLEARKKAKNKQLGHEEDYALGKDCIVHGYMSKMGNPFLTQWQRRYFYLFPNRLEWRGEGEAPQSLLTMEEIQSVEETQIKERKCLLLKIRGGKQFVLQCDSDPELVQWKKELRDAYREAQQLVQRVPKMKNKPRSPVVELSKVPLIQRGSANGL

B1: flag-tagged βARKnt (bovine GRK2 residues 50-145 with a carboxy-terminal flag-tag) (peptide)
chain: RGEVTFEKIFSQKLGYLLFRDFCLKHLEEAKPLVEFYEEIKKYEKLETEEERLVCSREIFDTYIMKELLACSHPFSKSAIEHVQGHLVKKQVPPDL
notes: An initiator Met is not described; also called βARKnt peptide; βARKnt-flag; not shown: carboxy-terminal flag-tag
[1]
  binding result: no binding
[2]
  binding result: no binding
